The labels stand for the following.
B1: R3005 (peptide)
peptide: Ac-[Nva]CY[Trp(7-aza)][Sar][Tle][Nva][Trp(7-aza)]EYP[Phg]P-NH2
SMILES: CCC[C@H](NC(C)=O)C(=O)N[C@@H](CS)C(=O)N[C@@H](Cc1ccc(O)cc1)C(=O)N[C@@H](Cc1c[nH]c2ncccc12)C(=O)N(C)CC(=O)N[C@H](C(=O)N[C@@H](CCC)C(=O)N[C@@H](Cc1c[nH]c2ncccc12)C(=O)N[C@@H](CCC(=O)O)C(=O)N[C@@H](Cc1ccc(O)cc1)C(=O)N1CCC[C@H]1C(=O)N[C@H](C(=O)N1CCC[C@H]1C(N)=O)c1ccccc1)C(C)(C)C
B2: R3004 (peptide)
peptide: Ac-[Nva]CYNN[Tle]E[Trp(7-aza)]EYP[Phg][Tle]-NH2
SMILES: CCC[C@H](NC(C)=O)C(=O)N[C@@H](CS)C(=O)N[C@@H](Cc1ccc(O)cc1)C(=O)N[C@@H](CC(N)=O)C(=O)N[C@@H](CC(N)=O)C(=O)N[C@H](C(=O)N[C@@H](CCC(=O)O)C(=O)N[C@@H](Cc1c[nH]c2ncccc12)C(=O)N[C@@H](CCC(=O)O)C(=O)N[C@@H](Cc1ccc(O)cc1)C(=O)N1CCC[C@H]1C(=O)N[C@H](C(=O)N[C@H](C(N)=O)C(C)(C)C)c1ccccc1)C(C)(C)C
B3: R3053 (peptide)
peptide: [Nva]CCN[Tle][Phg]C[Tle][NMeS]C[Tle]-NH2
modifications: linker (positions not given here) via mXylylene; also: mXylyl-bicyclo: Cys pairing not given here
B4: R3077 (peptide)
peptide: Ac-[Nva][Nva]YEN[Tle]Y[Trp(7-aza)]EYP[Chg][Nva]K
modifications: not fully specified (residue 14, C-terminus); printed as Ac-Nvl-Nvl-Y-E-N-Tbg-Y-azaTrp-E-Y-P-Chg-Nvl-K-(PEG2000) NH2; also: PEG2000 at C-terminal Lys, attachment site unstated
B5: R3006 (peptide)
peptide: Ac-YEN[Tle]Y[Trp(7-aza)]EY[Sar][Nva][NMeS]-NH2
SMILES: CCC[C@H](NC(=O)CN(C)C(=O)[C@H](Cc1ccc(O)cc1)NC(=O)[C@H](CCC(=O)O)NC(=O)[C@H](Cc1c[nH]c2ncccc12)NC(=O)[C@H](Cc1ccc(O)cc1)NC(=O)[C@@H](NC(=O)[C@H](CC(N)=O)NC(=O)[C@H](CCC(=O)O)NC(=O)[C@H](Cc1ccc(O)cc1)NC(C)=O)C(C)(C)C)C(=O)N(C)[C@@H](CO)C(N)=O
B6: R3041 (peptide)
peptide: Ac-YEN[Tle]YWEYP[Phg][Nva]-NH2
SMILES: CCC[C@H](NC(=O)[C@@H](NC(=O)[C@@H]1CCCN1C(=O)[C@H](Cc1ccc(O)cc1)NC(=O)[C@H](CCC(=O)O)NC(=O)[C@H](Cc1c[nH]c2ccccc12)NC(=O)[C@H](Cc1ccc(O)cc1)NC(=O)[C@@H](NC(=O)[C@H](CC(N)=O)NC(=O)[C@H](CCC(=O)O)NC(=O)[C@H](Cc1ccc(O)cc1)NC(C)=O)C(C)(C)C)c1ccccc1)C(N)=O
B7: R3072 (peptide)
peptide: Ac-[Nva][Nva]YEN[Tle]Y[Trp(7-aza)]EYP[Chg][Nva]K-NH2
SMILES: CCC[C@H](NC(C)=O)C(=O)N[C@@H](CCC)C(=O)N[C@@H](Cc1ccc(O)cc1)C(=O)N[C@@H](CCC(=O)O)C(=O)N[C@@H](CC(N)=O)C(=O)N[C@H](C(=O)N[C@@H](Cc1ccc(O)cc1)C(=O)N[C@@H](Cc1c[nH]c2ncccc12)C(=O)N[C@@H](CCC(=O)O)C(=O)N[C@@H](Cc1ccc(O)cc1)C(=O)N1CCC[C@H]1C(=O)N[C@H](C(=O)N[C@@H](CCC)C(=O)N[C@@H](CCCCN)C(N)=O)C1CCCCC1)C(C)(C)C

Starred links: 1 amine or outer side, 2 acyl side, 3 side chain; linkers in the order of their positions; H or OH if unused. Positions of bridges follow the written chain, without caps; N, C: chain ends. Non-standard residues stand in square brackets, D forms with d. Primed or numbered codes have the meaning given here. No end group written: not given here. Tyr(OMe) = O-methyl tyrosine, COc1ccc(C[C@H](N[*:1])C(=O)[*:2])cc1; mXylyl(5) = bridging moiety between the two residues (meta-xylyl); mXylyl = bridging moiety between residues (mXylyl(i,j)); Trp(5-F) = N[C@@H](Cc1c[nH]c2ccc(F)cc12)C(=O)O; Trp(7-aza) = N[C@@H](Cc1c[nH]c2ncccc12)C(=O)O; NMePhe(4-F) = CN[C@@H](Cc1ccc(F)cc1)C(=O)O; PEG2000 = polyethylene glycol, 2000 Da; Phe(4-F) = N[C@@H](Cc1ccc(F)cc1)C(=O)O; Phg(2-OMe) = COc1ccccc1[C@H](N)C(=O)O; mXylylene = c1cc(C[*:1])cc(C[*:2])c1; oXylylene = c1ccc(C[*:2])c(C[*:1])c1; pXylylene = c1cc(C[*:2])ccc1C[*:1]; Chg = N[C@H](C(=O)O)C1CCCCC1; Phg = N[C@H](C(=O)O)c1ccccc1; Tle = CC(C)(C)[C@H](N)C(=O)O; NMeS = CN[C@@H](CO)C(=O)O; NMeA = CN[C@@H](C)C(=O)O; Nva = CCC[C@H](N)C(=O)O; Sar = CNCC(=O)O Bounds are passed on as bounds.

For the experiment, the target named is human C5 protein (human, UniProt P01031 19-673; P01031 678-1676). Kind of experiment: cell-based or functional assay.
Turning to Ac-[Nva]C[Phg]T[Trp(5-F)]EY[NMeS]AC[Nva]-NH2 (linker 2-10 via mXylyl(5)) [R3088], the “Avg. IC50, human hemolysis assay (complete human sera)” value (from here on “Avg. IC50, human hemolysis assay”) is more than 100000 nM.
In the case of MCVERFCDVY-NH2 (linker 2-7 via mXylyl) [R3045], the “Avg. IC50, human hemolysis assay” value was more than 100000 nM.
Turning to Ac-[Nva]C[Phg]T[Trp(7-aza)]EY[NMeS]HC[Nva]-NH2 (linker 2-10 via oXylylene) [R3049], the “Avg. IC50, human hemolysis assay” value is more than 3100 nM.
On to Ac-[Nva]C[Phg]T[Trp(7-aza)]EY[NMeS]HC[Nva]P[Nva] (bridge 2-10) [R3040], for which the “Avg. IC50, human hemolysis assay” value was more than 100000 nM.
Take [Nva]CY[NMeS][Phg][NMePhe(4-F)][NMeS]H[NMePhe(4-F)][Sar]C-NH2 (linker 2-11 via mXylyl(5)) [R3051]: the “Avg. IC50, human hemolysis assay” value is more than 100000 nM.
As to Ac-[Nva]C[Phg]T[Trp(7-aza)]EY[NMeS]HCA-NH2 (linker 2-10 via mXylyl) [R3039], the “Avg. IC50, human hemolysis assay” value amounted to 240 nM.
As to MCVERFCDVYW-NH2 (linker 2-7 via mXylyl) [R3044], the “Avg. IC50, human hemolysis assay” value is more than 50000 nM.
As to Ac-[Nva]C[Chg]T[Trp(7-aza)]EY[NMeS]HC[Nva]-NH2 (linker 2-10 via pXylylene) [R3058], the “Avg. IC50, human hemolysis assay” value is more than 10000 nM.
For MCVERFCDV-NH2 (linker 2-7 via mXylyl(5)) [R3046], the “Avg. IC50, human hemolysis assay” value is more than 100000 nM.
As for Ac-[Nva]C[Phg]T[Trp(7-aza)]EYSAC[Nva]-NH2 (linker 2-10 via mXylyl(5)) [R3084], the figure is more than 100000 nM; as for Ac-[Nva]C[Phg(2-OMe)]T[Trp(7-aza)]EY[NMeS]HC[Nva]-NH2 (linker 2-10 via mXylyl(5)) [R3087], more than 25000 nM.
Turning to PEG2000-[Nva][Nva]YEN[Tle]Y[Trp(7-aza)]EYP[Phg][Nva]-NH2 [R3078], the “Avg. IC50, human hemolysis assay” value came to 568 nM.
As for B1, the figure is 66.7 nM.
On to B2, for which the “Avg. IC50, human hemolysis assay” value came out at 53.5 nM.
On to B3, for which the “Avg. IC50, human hemolysis assay” value was more than 100000 nM.
As for Ac-[Nva]C[Phg]T[Trp(7-aza)]E[Phe(4-F)][NMeS]HC[Nva]-NH2 (linker 2-10 via mXylyl(5)) [R3073], the figure is 403 nM; as for Ac-[Nva]SYEC[Tle]Y[Trp(7-aza)]EYP[Chg]C[Nva]-NH2 (linker 5-13 via mXylyl(5)) [R3086], more than 50000 nM.
Take B4: the “Avg. IC50, human hemolysis assay” value was 81.7 nM.
With B5, the “Avg. IC50, human hemolysis assay” value was 267 nM.
Take Ac-[Nva]C[Phg]T[Trp(7-aza)]EY[NMeS]C[Nva]-NH2 (linker 2-9 via mXylyl(5)) [R3080]: the “Avg. IC50, human hemolysis assay” value was more than 50000 nM.
As for B6, the “Avg. IC50, human hemolysis assay” value came out at 71.3 nM.
On to B7, for which the “Avg. IC50, human hemolysis assay” value came to 26.9 nM.
Regarding Ac-CVERFCDVYWEF-NH2 (linker 1-6 via mXylyl(5)) [R3048], the “Avg. IC50, human hemolysis assay” value is 19.3 nM.
Regarding [Nva]CY[NMeS][Phg][NMePhe(4-F)][NMeS]H[NMePhe(4-F)]GC-NH2 (linker 2-11 via mXylyl(5)) [R3075], the “Avg. IC50, human hemolysis assay” value is more than 75000 nM.
For Ac-[Nva]C[Phg]T[Trp(7-aza)]EYPHC[Nva]-NH2 (linker 2-10 via pXylylene) [R3065], the “Avg. IC50, human hemolysis assay” value came to 394 nM.
With Ac-[Nva]CKE[Phg]YC[NMeS][Tle]K[Trp(7-aza)]EY-NH2 (linker 2-7 via mXylyl) [R3007], the “Avg. IC50, human hemolysis assay” value was 314 nM.
For MCVERFC-NH2 (linker 2-7 via mXylyl(5)) [R3047], the “Avg. IC50, human hemolysis assay” value is more than 100000 nM.
In the case of [Nva]CY[Tle][Phg]N[Sar]LC[Phg][NMeA]-NH2 (linker 2-9 via mXylyl(5)) [R3052], the “Avg. IC50, human hemolysis assay” value was more than 100000 nM.
Take MCVERFCD[Tle]Y[Trp(7-aza)]EYP[Phg][Nva]-NH2 (linker 2-7 via mXylyl(5)) [R3057]: the “Avg. IC50, human hemolysis assay” value was determined as 12.4 nM.
With Ac-[Nva]C[Phg]T[Trp(7-aza)]E[Tyr(OMe)][NMeS]HC[Nva]-NH2 (linker 2-10 via mXylyl(5)) [R3074], the “Avg. IC50, human hemolysis assay” value is 308 nM.
The figure for Ac-[Nva]C[Phg]T[Trp(7-aza)]EY[NMeS]HC[Nva]-NH2 (bridge 2-10) [R3042] is more than 100000 nM.
For the molecule Ac-VC[Phg]T[Trp(7-aza)]EY[NMeS]AC[Nva]-NH2 (linker 2-10 via mXylyl(5)) [R3083], the “Avg. IC50, human hemolysis assay” value was more than 25000 nM.

For the origin of these results see patent publication US11535650 (RA PHARMACEUTICALS, dated 2022).
